Data published in IntAct's records for PubMed 20671708.

Molecular target: ago2_human AGO2 (UniProt Q9UKV8)
Sequence (Q9UKV8 whole entry): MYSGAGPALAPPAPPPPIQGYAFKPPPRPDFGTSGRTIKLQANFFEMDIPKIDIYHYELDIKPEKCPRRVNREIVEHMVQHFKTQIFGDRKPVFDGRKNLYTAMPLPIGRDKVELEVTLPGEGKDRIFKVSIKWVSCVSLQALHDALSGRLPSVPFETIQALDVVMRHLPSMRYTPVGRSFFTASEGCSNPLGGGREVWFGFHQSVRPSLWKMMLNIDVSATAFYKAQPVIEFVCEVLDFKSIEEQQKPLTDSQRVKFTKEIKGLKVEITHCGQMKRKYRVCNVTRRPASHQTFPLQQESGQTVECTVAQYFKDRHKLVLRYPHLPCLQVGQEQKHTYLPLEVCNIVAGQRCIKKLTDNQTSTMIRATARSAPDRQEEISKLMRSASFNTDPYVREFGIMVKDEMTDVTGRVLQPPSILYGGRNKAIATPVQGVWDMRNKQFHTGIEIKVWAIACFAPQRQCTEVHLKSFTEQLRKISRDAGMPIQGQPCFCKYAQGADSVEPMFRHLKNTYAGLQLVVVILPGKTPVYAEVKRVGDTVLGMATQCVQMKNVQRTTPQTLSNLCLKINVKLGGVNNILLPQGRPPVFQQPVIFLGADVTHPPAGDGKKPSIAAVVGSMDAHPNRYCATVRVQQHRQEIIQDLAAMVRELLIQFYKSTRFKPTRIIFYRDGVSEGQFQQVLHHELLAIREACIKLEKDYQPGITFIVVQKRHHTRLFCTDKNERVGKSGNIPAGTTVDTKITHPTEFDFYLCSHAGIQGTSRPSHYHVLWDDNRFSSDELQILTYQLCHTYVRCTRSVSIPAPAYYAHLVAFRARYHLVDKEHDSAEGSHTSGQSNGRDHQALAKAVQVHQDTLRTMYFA

Leucine-rich repeat serine/threonine-protein kinase 2 (Homo sapiens), Q5S007 G2019S
effect of a mutation on the interaction: increasing interaction

Leucine-rich repeat serine/threonine-protein kinase 2 (Homo sapiens), Q5S007 K1906M;D1994A;D2017A
effect of a mutation on the interaction: increasing interaction
